We go through 94 variants from the supplement of paper PMC10567573.

First the molecules themselves.
B1: SPATS1 (parent)
chain: YPEQSKGFHKAGSMLPPVNFSIVP
B2: FBXO3 (parent)
chain: HDPLWRRHCKKYWLISEEEKTQKN
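Also: lentivirally expressed fusions sorted by FACS into six bins by GFP to DsRed ratio, PSI derived from sequencing read proportions per bin multiplied by bin number.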

The variants in one series derive from B1. Description: protein stability index of a GFP-peptide fusion (GPS, HEK-293T) (PSI 1-6); higher = more stable. The note with it: c terminus: a fixed tail appended.
As for YPEQSKGFHTAGSMLPPVNFSIVP [K10T], the protein stability index stood at 2.08. Take YPEQSKGFHHAGSMLPPVNFSIVP [K10H]: the protein stability index was 1.44. On the same count and under the same terms, the same measure for YPEQSKGFHCAGSMLPPVNFSIVP [K10C]: 3.44; for YPEQSKGFHFAGSMLPPVNFSIVP [K10F]: 1.57.

Regarding YPEQSKGFHNAGSMLPPVNFSIVP [K10N], the protein stability index turned out to be 2.

For YPEQSKGFHSAGSMLPPVNFSIVP [K10S], the protein stability index was found to be 1.91. Still for that read-out and setting: the same measure for YPEQSKGFHMAGSMLPPVNFSIVP [K10M]: 1.93. With YPEQSKGFHVAGSMLPPVNFSIVP [K10V], the protein stability index was 1.76. As to YPEQSKGFSKAGSMLPPVNFSIVP [H9S], the protein stability index stood at 2.4. Same read-out and setting: with YPEQSKGFYKAGSMLPPVNFSIVP [H9Y] the figure was 2.21; with YPEQSKGFLKAGSMLPPVNFSIVP [H9L], 1.66. As to YPEQSKGFQKAGSMLPPVNFSIVP [H9Q], the protein stability index was 2.51.

With YPEQSKGFTKAGSMLPPVNFSIVP [H9T], the protein stability index worked out at 2.16. Still for that read-out and setting: the same measure for YPEQSKGFDKAGSMLPPVNFSIVP [H9D]: 2.94; for YPCQSKGFHKAGSMLPPVNFSIVP [E3C]: 2.35. On to YPTQSKGFHKAGSMLPPVNFSIVP [E3T], for which the protein stability index is 2.02. Same read-out and setting: with YPKQSKGFHKAGSMLPPVNFSIVP [E3K] the figure was 1.8; with YPGQSKGFHKAGSMLPPVNFSIVP [E3G], 1.82; with YPDQSKGFHKAGSMLPPVNFSIVP [E3D], 2.24. As to YPFQSKGFHKAGSMLPPVNFSIVP [E3F], the protein stability index was 2.11. With YPLQSKGFHKAGSMLPPVNFSIVP [E3L], the protein stability index is 1.9. On the same count and under the same terms, with YPEQSKGFHKAGSMLQPVNFSIVP [P16Q] the figure was 2.02; with YPEQSKGFHKAGSMLEPVNFSIVP [P16E], 1.95; with YPEQSKGFHKAGSMLIPVNFSIVP [P16I], 1.54. With YPEQSKGFHKAGSMLGPVNFSIVP [P16G], the protein stability index was 1.65.

With YPEQSHGFHKAGSMLPPVNFSIVP [K6H], the protein stability index came to 1.71. With YPEQSLGFHKAGSMLPPVNFSIVP [K6L], the protein stability index was 1.75. Still for that read-out and setting: with YPEQSCGFHKAGSMLPPVNFSIVP [K6C] the figure was 2.38; with YPEQSGGFHKAGSMLPPVNFSIVP [K6G], 2.09. Same read-out and setting: the same measure for YPEQSSGFHKAGSMLPPVNFSIVP [K6S]: 2.56; for YPEQSWGFHKAGSMLPPVNFSIVP [K6W]: 1.9. On to YPEQSMGFHKAGSMLPPVNFSIVP [K6M], for which the protein stability index worked out at 2.26.

A further series covers variants of B2. The series is described as above. The note with it: c terminus: a fixed tail appended.
Regarding HDPLWRRHCKKYWLISEEEKTRKN [Q22R], the protein stability index amounted to 2.95.

Take HDPLWRRHCKKYWLISEEEKTMKN [Q22M]: the protein stability index amounted to 3.01. The same measure, in the same setting: the same measure for HDPLWRRHCKKYWLISEEEKTGKN [Q22G]: 3.18. As for HDPLWRRHCKKYWLISEEEKTFKN [Q22F], the protein stability index was found to be 2.56.

As for HDPLWRRHCKKYWLISEEEKTKKN [Q22K], the protein stability index amounted to 2.89.

Turning to HDPLWRRHCKKYWLISEEEKTCKN [Q22C], the protein stability index was 2.79. On to HDPLWRRHCKKYWLISEEEKTEKN [Q22E], for which the protein stability index is 3.42.

With HDPLWRRHCKKYWLISEEEKTIKN [Q22I], the protein stability index worked out at 2.49. Consider HDPLWRRHCKKYWLISEEEKTTKN [Q22T], for which the protein stability index was 3.42. Still for that read-out and setting: the same measure for HDPLWRRHCKKYWLISEEEKTPKN [Q22P]: 3. Turning to HDPLWRRHCKKYWLISEEEKTYKN [Q22Y], the protein stability index turned out to be 2.58.

Regarding HDPLWRRHCKKYWLISEEEKTDKN [Q22D], the protein stability index came out at 3.35. On the same count and under the same terms, with HDPLWRRHCKKYWLISEEEKTSKN [Q22S] the figure was 2.97; with HDPLWRRHCKKYWLISEEEKTVKN [Q22V], 3.44; with HDPLWRRHCKKYWLISEEEKTLKN [Q22L], 2.57.

In the case of HDPLWRRHCKKYWLISEEEKTNKN [Q22N], the protein stability index stood at 3.19.

Turning to HDPLWRRHCKKYWLISEEEKTHKN [Q22H], the protein stability index was determined as 2.99. With HDPLWRRHCKKYWLISEEEKTAKN [Q22A], the protein stability index was determined as 3.29. On the same count and under the same terms, the same measure for HDPLWRRHCKKYWLISEEEKTWKN [Q22W]: 2.05.

With HDPLWRRHCKKYWLISEEEKRQKN [T21R], the protein stability index was found to be 2.83. The same measure, in the same setting: with HDPLWRRHCKKYWLISEEEKVQKN [T21V] the figure was 2.99. In the case of HDPLWRRHCKKYWLISEEEKSQKN [T21S], the protein stability index came to 3.03.

HDPLWRRHCKKYWLISEEEKYQKN [T21Y]: the protein stability index turned out to be 2.74.

HDPLWRRHCKKYWLISEEEKWQKN [T21W]: the protein stability index came to 2.44. On the same count and under the same terms, the same measure for HDPLWRRHCKKYWLISEEEKTQEN [K23E]: 3.8. The same measure, in the same setting: the same measure for HDPLWRRHCKKYWLISEEEKTQPN [K23P]: 3.11; for HDPLWRRHCKKYWLISEEEKTQGN [K23G]: 3.65; for HDPLWRRHCKKYWLISEEEKTQHN [K23H]: 3.24.

Turning to HDPLWRRHCKKYWLISEEEKTQYN [K23Y], the protein stability index was 2.91. With HDPLWRRHCKKYWLISEEEKTQDN [K23D], the protein stability index worked out at 3.95.

With HDPLWRRHCKKYWLISEEEKTQQN [K23Q], the protein stability index came out at 3.27.

Regarding HDPLWRRHCKKYWLISEEEKTQMN [K23M], the protein stability index was 3.19. Same read-out and setting: with HDPLWRRHCKKYWLISEEEKTQFN [K23F] the figure was 2.85; with HDPLWRRHCKKYWLISEEEKTQNN [K23N], 3.05. Take HDPLWRRHCKKYWLISEEEKTQWN [K23W]: the protein stability index was determined as 2.7.

Take HDPLWRRHCKKYWLISEEEKTQTN [K23T]: the protein stability index was found to be 3.31. With HDPLWRRHCKKYWLISEEEKTQSN [K23S], the protein stability index turned out to be 3.38.

Turning to HDPLWRRHCKKYWLISEEEKTQCN [K23C], the protein stability index was 3.09. Regarding HDPLWRRHCKKYWLISEEEKTQRN [K23R], the protein stability index turned out to be 3.16. Regarding HDPLWRRHCKKYWLISEEEKTQIN [K23I], the protein stability index worked out at 2.93. The same measure, in the same setting: the same measure for HDPLWRRHCKKYWLISEEEKTQLN [K23L]: 2.94. On to HDPLWRRHCKKYWLISEEEKTQAN [K23A], for which the protein stability index stood at 3.34. On the same count and under the same terms, with HDPLWRRHCKKYWLISEEEKTQVN [K23V] the figure was 3.6; with HDPLWRRHCKKYWLISEEEKTQKK [N24K], 2.79; with HDPLWRRHCKKYWLISEEEKTQKY [N24Y], 2.44. The same measure, in the same setting: with HDPLWRRHCKKYWLISEEEKTQKP [N24P] the figure was 3.87. Same read-out and setting: with HDPLWRRHCKKYWLISEEEKTQKS [N24S] the figure was 2.91; with HDPLWRRHCKKYWLISEEEKTQKL [N24L], 2.81. As to HDPLWRRHCKKYWLISEEEKTQKT [N24T], the protein stability index was determined as 3.47. On the same count and under the same terms, the same measure for HDPLWRRHCKKYWLISEEEKTQKE [N24E]: 3.12.

Consider HDPLWRRHCKKYWLISEEEKTQKW [N24W], for which the protein stability index was 2.47.

Consider HDPLWRRHCKKYWLISEEEKTQKH [N24H], for which the protein stability index came to 2.99. Still for that read-out and setting: the same measure for HDPLWRRHCKKYWLISEEEKTQKV [N24V]: 3.02; for HDPLWRRHCKKYWLISEEEKTQKR [N24R]: 3.22.

For HDPLWRRHCKKYWLISEEEKTQKF [N24F], the protein stability index stood at 2.47. As for HDPLWRRHCKKYWLISEEEKTQKC [N24C], the protein stability index stood at 2.73. Same read-out and setting: with HDPLWRRHCKKYWLISEEEKTQKA [N24A] the figure was 2.9; with HDPLWRRHCKKYWLISEEEKTQKG [N24G], 2.61; with HDPLWRRHCKKYWLISEEEKTQKI [N24I], 2.48. Take HDPLWRRHCKKYWLISEEEKTQKQ [N24Q]: the protein stability index is 3.43. On the same count and under the same terms, the same measure for HDPLWRRHCKKYWLISEEEKTQKM [N24M]: 3.4.

In the case of HDPLWRRHCKKYWLISEEEKTQKD [N24D], the protein stability index amounted to 3.68.
